For the experiment, the target named is M6P receptors on the surface of human fibroblasts (human), P11717. Description: cell-based or functional assay.

Where “and” joins values, the source holds several entries; their conditions need not be identical. Identical values can stand only once.

Sequence of M6P receptors on the surface of human fibroblasts (human), P11717 (P11717 41-2491): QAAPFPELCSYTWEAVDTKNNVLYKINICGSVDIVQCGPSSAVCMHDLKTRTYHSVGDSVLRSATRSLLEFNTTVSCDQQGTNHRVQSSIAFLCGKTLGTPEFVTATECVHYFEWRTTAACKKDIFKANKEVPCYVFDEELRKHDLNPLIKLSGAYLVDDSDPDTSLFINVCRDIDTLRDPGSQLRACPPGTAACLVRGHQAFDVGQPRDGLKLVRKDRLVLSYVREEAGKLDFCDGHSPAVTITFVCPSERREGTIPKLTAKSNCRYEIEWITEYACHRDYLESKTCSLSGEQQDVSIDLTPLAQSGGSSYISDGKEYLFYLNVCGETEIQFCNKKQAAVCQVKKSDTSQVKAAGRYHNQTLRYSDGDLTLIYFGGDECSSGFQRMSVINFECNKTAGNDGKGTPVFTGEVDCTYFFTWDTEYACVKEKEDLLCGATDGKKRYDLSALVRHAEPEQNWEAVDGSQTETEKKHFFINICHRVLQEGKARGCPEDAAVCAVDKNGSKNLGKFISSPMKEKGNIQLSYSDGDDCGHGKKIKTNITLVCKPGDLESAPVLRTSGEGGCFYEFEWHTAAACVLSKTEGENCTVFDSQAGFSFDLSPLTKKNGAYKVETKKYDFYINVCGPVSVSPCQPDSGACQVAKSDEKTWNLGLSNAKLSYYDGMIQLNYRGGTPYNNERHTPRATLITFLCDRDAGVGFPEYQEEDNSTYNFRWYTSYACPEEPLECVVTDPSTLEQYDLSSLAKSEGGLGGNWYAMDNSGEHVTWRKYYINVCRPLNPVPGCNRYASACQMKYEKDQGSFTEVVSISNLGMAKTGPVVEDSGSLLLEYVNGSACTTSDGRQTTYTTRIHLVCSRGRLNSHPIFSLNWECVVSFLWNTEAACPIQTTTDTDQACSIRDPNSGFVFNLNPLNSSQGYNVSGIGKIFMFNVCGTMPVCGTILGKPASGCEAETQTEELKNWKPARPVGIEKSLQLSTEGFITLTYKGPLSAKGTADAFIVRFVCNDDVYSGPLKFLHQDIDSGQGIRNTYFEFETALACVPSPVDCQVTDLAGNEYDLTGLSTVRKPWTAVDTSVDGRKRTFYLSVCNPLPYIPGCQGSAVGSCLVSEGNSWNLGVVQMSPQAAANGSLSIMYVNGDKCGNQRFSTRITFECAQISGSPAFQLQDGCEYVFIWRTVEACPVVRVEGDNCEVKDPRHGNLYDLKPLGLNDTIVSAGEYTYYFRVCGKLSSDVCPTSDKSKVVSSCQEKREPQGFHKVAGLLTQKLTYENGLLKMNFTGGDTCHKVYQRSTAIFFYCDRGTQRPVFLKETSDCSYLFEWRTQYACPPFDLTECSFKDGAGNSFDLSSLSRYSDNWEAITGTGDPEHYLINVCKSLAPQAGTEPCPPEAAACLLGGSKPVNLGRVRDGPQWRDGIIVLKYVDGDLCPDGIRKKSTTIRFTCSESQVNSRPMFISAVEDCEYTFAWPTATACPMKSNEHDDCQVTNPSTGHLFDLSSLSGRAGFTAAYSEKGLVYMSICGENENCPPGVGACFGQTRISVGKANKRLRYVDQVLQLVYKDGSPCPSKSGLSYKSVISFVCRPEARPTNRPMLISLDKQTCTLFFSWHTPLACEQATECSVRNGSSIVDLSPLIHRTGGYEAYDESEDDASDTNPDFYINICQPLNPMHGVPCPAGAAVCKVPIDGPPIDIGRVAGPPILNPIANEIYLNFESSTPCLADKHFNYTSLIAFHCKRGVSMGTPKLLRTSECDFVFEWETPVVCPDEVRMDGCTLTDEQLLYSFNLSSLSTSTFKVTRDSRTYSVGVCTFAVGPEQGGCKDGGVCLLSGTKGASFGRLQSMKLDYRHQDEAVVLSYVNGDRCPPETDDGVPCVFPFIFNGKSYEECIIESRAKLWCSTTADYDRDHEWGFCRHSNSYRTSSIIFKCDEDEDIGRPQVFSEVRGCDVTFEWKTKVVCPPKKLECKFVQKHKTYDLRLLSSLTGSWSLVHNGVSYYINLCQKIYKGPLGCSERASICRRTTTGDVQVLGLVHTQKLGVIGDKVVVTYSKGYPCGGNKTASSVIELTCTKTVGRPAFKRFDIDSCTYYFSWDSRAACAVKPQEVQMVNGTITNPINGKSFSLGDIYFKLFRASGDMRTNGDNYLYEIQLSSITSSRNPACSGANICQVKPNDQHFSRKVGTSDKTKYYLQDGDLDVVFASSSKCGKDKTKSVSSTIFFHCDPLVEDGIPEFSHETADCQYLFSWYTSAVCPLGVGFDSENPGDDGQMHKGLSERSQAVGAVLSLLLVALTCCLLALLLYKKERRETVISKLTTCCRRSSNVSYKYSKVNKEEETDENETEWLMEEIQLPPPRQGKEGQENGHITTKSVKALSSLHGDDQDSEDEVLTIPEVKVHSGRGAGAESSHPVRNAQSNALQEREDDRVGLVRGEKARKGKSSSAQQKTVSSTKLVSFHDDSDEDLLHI

B1: purified recombinant human iduronate-2-sulfatase (I2S) produced in serum-free medium, P22304 26-550 (enzyme)
chain: SETQANSTTDALNVLLIIVDDLRPSLGCYGDKLVRSPNIDQLASHSLLFQNAFAQQAVCAPSRVSFLTGRRPDTTRLYDFNSYWRVHAGNFSTIPQYFKENGYVTMSVGKVFHPGISSNHTDDSPYSWSFPPYHPSSEKYENTKTCRGPDGELHANLLCPVDVLDVPEGTLPDKQSTEQAIQLLEKMKTSASPFFLAVGYHKPHIPFRYPKEFQKLYPLENITLAPDPEVPDGLPPVAYNPWMDIRQREDVQALNISVPYGPIPVDFQRKIRQSYFASVSYLDTQVGRLLSALDDLQLANSTIIAFTSDHGWALGEHGEWAKYSNFDVATHVPLIFYVPGRTASLPEAGEKLFPYLDPFDSASQLMEPGRQSMDLVELVSLFPTLAGLAGLQVPPRCPVPSFHVELCREGKNLLKHFRFRDLEEDPYLPGNPRELIAYSQYPRPSDIPQWNSDKPSLKDIKIMGYSIRTIDYRYTVWVGFNPDEFLANFSDIHAGELYFVDSDPLQDHNMYNDSQGGDLFQLLMP
modifications: here or on the partner: cysteine corresponding to Cys59 of mature human I2S (SEQ ID NO:1) converted to C-alpha-formylglycine (87-95% in Table 4, 94% in Table 13); glycans bearing sialic acid and mannose-6-phosphate
Consider B1, for which the Cell Uptake was determined as 98; the Cellular Uptake (Bioassay) was 85% and 95% and 97%; the Internalization was determined as 83%.

These data come from patent publication US20150313972A1.
